Assay results published in patent US20250320304A1 (Janssen / Centocor, published 2025).

T1: BCMA (BCMW37.DB.001) (UniProt Q02223 1-54, limits assumed)
T1 construct: The SPR antigen itself is named only by its batch label
T1 sequence (looked up): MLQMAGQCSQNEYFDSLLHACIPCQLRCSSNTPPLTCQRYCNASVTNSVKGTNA

T2: BCMA on H929-Fluc-GFP cells (UniProt Q02223 1-184)
T2 sequence (looked up): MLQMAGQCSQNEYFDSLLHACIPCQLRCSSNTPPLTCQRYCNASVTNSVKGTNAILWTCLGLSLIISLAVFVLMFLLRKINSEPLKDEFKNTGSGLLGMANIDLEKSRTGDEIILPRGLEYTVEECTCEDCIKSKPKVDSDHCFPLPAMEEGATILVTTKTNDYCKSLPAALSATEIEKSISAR

T3: biotinylated-BCMA protein (UniProt Q02223 1-54, limits assumed, biotinylated (site not stated))
T3 construct: also called recombinant BCMA antigen; recombinant biotinylated BCMA
T3 sequence (looked up): T1 sequence (looked up)

B1: BCMB1052 (bispecific antibody, human IgG1, kappa, L234A L235A)
light: DIVMTQSQKFMSTTVGDRVSITCKASQNVGTAVAWYQQKPGQSPKLLIYSASNRYTGVPDRFTGTGSGTDFTLTIINVQSEDLADYFCQQYGSSPWTFGGGTKLEIKRTVAAPSVFIFPPSDEQLKSGTASVVCLLNNFYPREAKVQWKVDNALQSGNSQESVTEQDSKDSTYSLSSTLTLSKADYEKHKVYACEVTHQGLSSPVTKSFNRGEC
heavy: QVQLQQSGAELVKPGASVKLSCKASGYTFTNNVMHWVRQKPGQGLEWIGYILPYNDGTKYNEKFKGKATLTSDKSSSTAYMELSSLTSEDSAVYYCARYDYDGYFDYWGQGTTLTVSSASTKGPSVFPLAPSSKSTSGGTAALGCLVKDYFPEPVTVSWNSGALTSGVHTFPAVLQSSGLYSLSSVVTVPSSSLGTQTYICNVNHKPSNTKVDKKVEPKSCDKTHTCPPCPAPEAAGGPSVFLFPPKPKDTLMISRTPEVTCVVVSVSHEDPEVKFNWYVDGVEVHNAKTKPREEQYNSTYRVVSVLTVLHQDWLNGKEYKCKVSNKALPAPIEKTISKAKGQPREPQVYTLPPSREEMTKNQVSLSCAVKGFYPSDIAVEWESNGQPENNYKTTPPVLDSDGSFFLVSKLTVDKSRWQQGNVFSCSVMHEALHNRFTQKSLSLSPGK
chain: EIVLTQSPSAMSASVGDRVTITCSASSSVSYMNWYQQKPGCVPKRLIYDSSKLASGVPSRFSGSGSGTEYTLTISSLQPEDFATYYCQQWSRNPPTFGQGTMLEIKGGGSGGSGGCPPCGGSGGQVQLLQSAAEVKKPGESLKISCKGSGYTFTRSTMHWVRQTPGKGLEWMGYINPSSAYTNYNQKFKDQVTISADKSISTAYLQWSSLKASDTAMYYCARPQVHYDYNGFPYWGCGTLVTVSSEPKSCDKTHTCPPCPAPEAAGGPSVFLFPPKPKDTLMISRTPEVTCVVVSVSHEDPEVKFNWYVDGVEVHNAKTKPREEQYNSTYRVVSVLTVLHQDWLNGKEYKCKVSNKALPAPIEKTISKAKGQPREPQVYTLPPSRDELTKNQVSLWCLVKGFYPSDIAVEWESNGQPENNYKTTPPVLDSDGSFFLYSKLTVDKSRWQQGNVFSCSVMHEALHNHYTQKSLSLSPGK
notes: Murine anti-BCMA Fab × stapled anti-CD3 scFv-Fc, knob-in-hole Fc; also called BCMB1052.001; BCMB749 × Cris7b spFv
B2: BCMB1056 (bispecific antibody, human IgG1, kappa, L234A L235A)
light: B1 light
heavy: B1 heavy
chain: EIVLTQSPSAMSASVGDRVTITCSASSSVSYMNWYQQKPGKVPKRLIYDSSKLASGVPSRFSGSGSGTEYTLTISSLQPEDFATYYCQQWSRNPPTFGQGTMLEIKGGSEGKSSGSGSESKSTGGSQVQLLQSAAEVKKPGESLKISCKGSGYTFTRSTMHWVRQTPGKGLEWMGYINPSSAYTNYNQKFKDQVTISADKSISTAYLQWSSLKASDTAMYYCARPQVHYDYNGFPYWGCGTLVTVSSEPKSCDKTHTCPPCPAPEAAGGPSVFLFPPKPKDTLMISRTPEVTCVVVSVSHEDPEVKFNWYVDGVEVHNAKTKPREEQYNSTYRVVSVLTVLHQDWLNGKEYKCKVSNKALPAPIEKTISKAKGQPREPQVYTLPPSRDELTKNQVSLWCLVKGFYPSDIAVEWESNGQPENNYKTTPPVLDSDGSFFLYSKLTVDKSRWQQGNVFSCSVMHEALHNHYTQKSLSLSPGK
notes: Murine anti-BCMA Fab × anti-CD3 scFv-Fc, knob-in-hole Fc; also called BCMB1056.001; BCMB749 × Cris7b scFv
B3: BCMB1051 (bispecific antibody, human IgG1, kappa, L234A L235A)
light: B1 light
heavy: B1 heavy
chain: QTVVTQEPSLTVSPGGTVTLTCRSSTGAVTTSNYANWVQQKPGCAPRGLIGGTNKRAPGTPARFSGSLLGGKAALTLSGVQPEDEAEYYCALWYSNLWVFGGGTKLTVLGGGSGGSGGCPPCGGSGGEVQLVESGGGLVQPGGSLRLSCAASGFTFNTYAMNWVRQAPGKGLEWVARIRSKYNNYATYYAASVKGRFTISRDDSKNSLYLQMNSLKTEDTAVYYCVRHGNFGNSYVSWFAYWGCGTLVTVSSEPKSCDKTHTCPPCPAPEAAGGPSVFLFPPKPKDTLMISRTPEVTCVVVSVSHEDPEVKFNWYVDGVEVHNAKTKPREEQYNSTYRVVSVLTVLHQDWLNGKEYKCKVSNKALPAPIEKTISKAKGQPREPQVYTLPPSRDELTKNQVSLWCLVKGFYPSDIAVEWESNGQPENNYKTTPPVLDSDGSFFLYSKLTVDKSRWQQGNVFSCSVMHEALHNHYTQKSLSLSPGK
notes: Murine anti-BCMA Fab × stapled anti-CD3 (CD3B219) scFv-Fc, knob-in-hole Fc; also called BCMB1051.001; BCMB749 × CD3B219 spfv
B4: TD01B48 (bispecific antibody)
light: B1 light
heavy: B1 heavy
scFv-Fc: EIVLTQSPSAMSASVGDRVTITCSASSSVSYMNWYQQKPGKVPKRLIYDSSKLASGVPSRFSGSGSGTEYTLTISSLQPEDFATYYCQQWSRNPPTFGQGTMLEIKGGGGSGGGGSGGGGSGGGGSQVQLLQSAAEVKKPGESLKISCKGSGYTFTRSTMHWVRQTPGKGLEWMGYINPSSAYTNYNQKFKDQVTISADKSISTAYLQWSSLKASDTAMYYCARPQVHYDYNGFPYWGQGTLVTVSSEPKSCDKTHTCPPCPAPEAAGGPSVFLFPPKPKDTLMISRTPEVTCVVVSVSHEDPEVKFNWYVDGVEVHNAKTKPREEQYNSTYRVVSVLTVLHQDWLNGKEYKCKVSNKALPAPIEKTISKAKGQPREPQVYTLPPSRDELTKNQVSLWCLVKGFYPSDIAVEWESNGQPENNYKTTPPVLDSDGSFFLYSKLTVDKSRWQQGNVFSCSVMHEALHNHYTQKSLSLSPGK
notes: also called BCMB749 × Cris7b scFv G4S; Cris7 scFv B48 G4S
B5: BCMB1055 (bispecific antibody, human IgG1, kappa, L234A L235A)
light: DIQMTQSPSSVSASVGDRVTITCKASQNVGTAVAWYQQKPGQSPKLLIYSASNRYTGVPSRFSGSGSGTDFTLTISSLQPEDFATYFCQQYGSSPWTFGGGTKVEIKRTVAAPSVFIFPPSDEQLKSGTASVVCLLNNFYPREAKVQWKVDNALQSGNSQESVTEQDSKDSTYSLSSTLTLSKADYEKHKVYACEVTHQGLSSPVTKSFNRGEC
heavy: QVQLVQSGAEVKKPGASVKVSCKASGYTFTNNVMHWVRQAPGQGLEWMGYILPYNDGTKYNQKFQGRVTLTSDKSASTAYMELSSLRSEDTAVYYCARYDYDGYFDYWGQGTTVTVSSASTKGPSVFPLAPSSKSTSGGTAALGCLVKDYFPEPVTVSWNSGALTSGVHTFPAVLQSSGLYSLSSVVTVPSSSLGTQTYICNVNHKPSNTKVDKKVEPKSCDKTHTCPPCPAPEAAGGPSVFLFPPKPKDTLMISRTPEVTCVVVSVSHEDPEVKFNWYVDGVEVHNAKTKPREEQYNSTYRVVSVLTVLHQDWLNGKEYKCKVSNKALPAPIEKTISKAKGQPREPQVYTLPPSREEMTKNQVSLSCAVKGFYPSDIAVEWESNGQPENNYKTTPPVLDSDGSFFLVSKLTVDKSRWQQGNVFSCSVMHEALHNRFTQKSLSLSPGK
chain: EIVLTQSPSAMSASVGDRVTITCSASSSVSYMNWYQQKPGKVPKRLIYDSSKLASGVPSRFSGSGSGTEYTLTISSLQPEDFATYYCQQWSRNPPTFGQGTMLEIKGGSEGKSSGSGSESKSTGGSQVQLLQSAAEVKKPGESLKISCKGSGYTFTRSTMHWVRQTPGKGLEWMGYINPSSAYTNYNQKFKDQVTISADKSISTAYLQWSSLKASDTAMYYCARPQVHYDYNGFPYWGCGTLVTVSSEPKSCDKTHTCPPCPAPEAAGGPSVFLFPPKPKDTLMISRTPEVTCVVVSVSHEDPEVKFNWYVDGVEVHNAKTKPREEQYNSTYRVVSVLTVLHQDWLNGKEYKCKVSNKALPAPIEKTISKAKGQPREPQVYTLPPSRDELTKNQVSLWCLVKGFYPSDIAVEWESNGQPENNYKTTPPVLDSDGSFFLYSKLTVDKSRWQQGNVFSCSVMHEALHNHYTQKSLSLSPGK
notes: Humanized anti-BCMA Fab × anti-CD3 scFv-Fc, knob-in-hole Fc; also called BCMB1055.001; BCMB749h × Cris7b scFv
B6: BCMB1050 (bispecific antibody, human IgG1, kappa, L234A L235A)
light: B5 light
heavy: B5 heavy
chain: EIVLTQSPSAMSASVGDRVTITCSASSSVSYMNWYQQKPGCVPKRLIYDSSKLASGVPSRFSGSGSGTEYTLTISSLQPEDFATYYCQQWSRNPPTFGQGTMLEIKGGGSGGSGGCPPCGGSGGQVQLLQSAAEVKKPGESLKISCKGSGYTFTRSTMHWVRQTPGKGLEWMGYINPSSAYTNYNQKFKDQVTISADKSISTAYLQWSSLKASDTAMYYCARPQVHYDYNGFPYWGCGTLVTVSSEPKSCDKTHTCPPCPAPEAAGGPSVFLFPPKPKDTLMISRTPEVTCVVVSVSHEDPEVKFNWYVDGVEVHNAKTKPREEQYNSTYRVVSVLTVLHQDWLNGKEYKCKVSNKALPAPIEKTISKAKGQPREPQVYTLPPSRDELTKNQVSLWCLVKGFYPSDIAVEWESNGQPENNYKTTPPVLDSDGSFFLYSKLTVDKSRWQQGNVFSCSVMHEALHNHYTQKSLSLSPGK
notes: Humanized anti-BCMA Fab × stapled anti-CD3 scFv-Fc, knob-in-hole Fc; also called BCMB1050.001; BCMB749h × Cris7b spFv
B7: BCMB1049 (bispecific antibody, human IgG1, kappa, L234A L235A)
light: B5 light
heavy: B5 heavy
chain: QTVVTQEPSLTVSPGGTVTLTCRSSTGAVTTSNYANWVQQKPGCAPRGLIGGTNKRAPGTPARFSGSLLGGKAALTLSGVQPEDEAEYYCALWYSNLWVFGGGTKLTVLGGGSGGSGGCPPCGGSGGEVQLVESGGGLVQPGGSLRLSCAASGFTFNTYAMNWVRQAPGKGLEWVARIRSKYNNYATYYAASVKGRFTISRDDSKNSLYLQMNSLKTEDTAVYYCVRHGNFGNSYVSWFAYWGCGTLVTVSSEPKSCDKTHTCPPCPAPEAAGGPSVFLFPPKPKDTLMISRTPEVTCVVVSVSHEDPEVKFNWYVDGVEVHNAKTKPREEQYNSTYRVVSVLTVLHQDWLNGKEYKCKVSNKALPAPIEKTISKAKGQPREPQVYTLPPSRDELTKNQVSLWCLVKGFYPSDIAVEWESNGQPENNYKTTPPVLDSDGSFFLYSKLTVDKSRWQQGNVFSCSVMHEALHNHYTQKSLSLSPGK
notes: Humanized anti-BCMA Fab × stapled anti-CD3 (CD3B219) scFv-Fc, knob-in-hole Fc; also called BCMB1049.001; BCMB749h × CD3B219 spFv

Assays:
BCMA (BCMW37.DB.001) = molecular target: T1, BCMA (BCMW37.DB.001); assay: SPR, BCMA antigen BCMW37.DB.001
[1] = molecular target: CD3 on human donor Pan T cells (human); assay: cell-based or functional assay
[2] = molecular target: T2, BCMA on H929-Fluc-GFP cells; assay: cell-based or functional assay
CD3W220.001 = assay: SPR, CD3 antigen CD3W220.001
[3] = molecular target: T3, biotinylated-BCMA protein; assay: ELISA, chemiluminescence: biotinylated recombinant BCMA on streptavidin plates, detection with goat anti-human IgG F(ab')2 HRP
Procedure: Bispecific antibodies were analyzed for binding to either recombinant biotinylated BCMA or recombinant biotinylated CD3 antigen (human CD3 epsilon and CD3 delta heterodimer protein, Acro Biosystems). ELISAs were carried out according to standard protocols and plates were washed three time with TBS containing 0.05% Tween 20 (TBS-T) between each incubation step. Ninety-six-well MAXISORP plates (Nunc) were coated with 1 ug/mL of Streptavidin, diluted in 1×dPBS for 18 hours at 4° C. All plates were coated with 20 nM of antigen of interest for 1 hour at room temperature and then blocked with 3% BSA in PBS-T (1×dPBs with 0.05% tween 20) for 1 hour at room temperature. After blocking, plates were incubated with serial dilution of purified bispecific samples in PBS-T for 1 h at RT, and were then incubated with goat anti-human IgG F(ab′2)2 HRP (Jackson ImmunoResearch) for 1 hour at room temperature. After washing, BM Chemilluminesence ELISA Substrate (POD) was added (Millipore) and plates were immediately read on an ENVISION plate reader (Perkin Elmer) using ultrasensitive illuminesence. […] PRISM, where curves were generated and analyzed with a nonlinear regression curve fit.

[4] = molecular target: T4, Human CD3E-CD3D Heterodimer Protein (Acro Biosystems) (human, UniProt P07766 23-126; P04234 22-105); assay: BLI (Octet), bispecific on anti-human Fc sensor, CD3 in solution, 2:1 heterogeneous ligand model, kdis
T4 construct: also called recombinant CD3 antigen (human CD3 epsilon and CD3 delta heterodimer protein, Acro Biosystems); Recombinant CD3E/D heterodimer protein
Procedure: (§1) To evaluate CD3 binding, anti-human IgG Fc (AHC) capture biosensors (Sartorius) were loaded with 3 ug/mL bispecific sample of interest in PBS. After loading sensor tips were washed in 1×DPBS+0.02% Tween 20+1 mg/mL Bovine Serum Albumin (BSA) for blocking. […] Association was monitored for 1800 s and dissociation for 900 s, respectively. All measurements were performed at 30° C. with agitation at 1,200 rpm. Sensorgrams were referenced for buffer effects and then analyzed using the FORTEBIO Data Analysis HT Software (V. 12.0.1.55). Kinetic responses were baseline subtracted, aligned and globally fit using a 1:1 fitting model or 2:1 heterogeneous ligand binding model to obtain values for association (Kon), dissociation (Koff) rate constants and the equilibrium dissociation constants (KD).
(§2) Recombinant CD3E/D heterodimer protein was used to assess binding of the scFv/spFv anti-CD3 arms.

[5] = molecular target: T4, Human CD3E-CD3D Heterodimer Protein …; assay: BLI (Octet), bispecific on anti-human Fc sensor, CD3 in solution, 2:1 heterogeneous ligand model, kdis2
Procedure: as §1, §2

[6] = molecular target: T4, Human CD3E-CD3D Heterodimer Protein …; assay: BLI (Octet), bispecific on anti-human Fc sensor, CD3 in solution, 2:1 heterogeneous ligand model, KD2
Procedure: as §1, §2

[7] = molecular target: T4, Human CD3E-CD3D Heterodimer Protein …; assay: BLI (Octet), bispecific on anti-human Fc sensor, CD3 in solution, 2:1 heterogeneous ligand model, ka
Procedure: as §1, §2

[8] = molecular target: T4, Human CD3E-CD3D Heterodimer Protein …; assay: BLI (Octet), bispecific on anti-human Fc sensor, CD3 in solution, 2:1 heterogeneous ligand model, KD1
Procedure: as §1, §2

[9] = molecular target: T4, Human CD3E-CD3D Heterodimer Protein …; assay: BLI (Octet), bispecific on anti-human Fc sensor, CD3 in solution, 2:1 heterogeneous ligand model, ka2
Procedure: as §1, §2

T4 sequence (P07766 23-126 limits assumed, chain 1 of 2): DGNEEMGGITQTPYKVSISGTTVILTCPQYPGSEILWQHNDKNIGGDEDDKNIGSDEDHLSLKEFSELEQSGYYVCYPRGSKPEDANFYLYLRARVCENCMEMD
T4 sequence (P04234 22-105 limits assumed, chain 2 of 2): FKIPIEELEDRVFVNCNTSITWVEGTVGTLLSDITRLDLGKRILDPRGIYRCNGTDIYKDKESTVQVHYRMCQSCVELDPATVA
Chain of CD3 on human donor Pan T cells (human) (chain, as listed by the source): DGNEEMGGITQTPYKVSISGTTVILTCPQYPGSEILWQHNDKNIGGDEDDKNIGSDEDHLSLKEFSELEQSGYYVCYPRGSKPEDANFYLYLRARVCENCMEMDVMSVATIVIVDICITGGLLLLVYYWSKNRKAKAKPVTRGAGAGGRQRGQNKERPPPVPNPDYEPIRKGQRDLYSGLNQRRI

| Binder | Kd (BCMA (BCMW37.DB.001)) [nM] | koff (BCMA (BCMW37.DB.001)) [s⁻¹] | kon (BCMA (BCMW37.DB.001)) [M⁻¹ s⁻¹] | Bottom of fit, CD4/CD25+ T cell activation [1] | Bottom of fit, CD8/CD25+ T cell activation [1] | EC50 (nM), CD4/CD25+ T cell activation [1] [nM] | EC50 (nM), CD8/CD25+ T cell activation [1] [nM] | Top of fit (Cmax), CD4/CD25+ T cell activation [1] | Top of fit (Cmax), CD8/CD25+ T cell activation [1] | Bottom of fit, % Cytolysis [2] [%] | EC50 (nM), % Cytolysis [2] [nM] | Top of fit (Cmax), % Cytolysis [2] [%] | Kd (CD3W220.001) [nM] | koff (CD3W220.001) [s⁻¹] | kon (CD3W220.001) [M⁻¹ s⁻¹] | also measured |
| --- | --- | --- | --- | --- | --- | --- | --- | --- | --- | --- | --- | --- | --- | --- | --- | --- |
| B1 | 2.74 | 0.039 | 1.42e+07 | 8.12 | 0.941 | 0.0627 | 0.117 | 80.9 | 73.5 | 15.4 | 0.0489 | 93.4 | 502 | 0.105 | 210000 | – |
| B2 | 2.61 | 0.0389 | 1.49e+07 | 8.29 | 1.42 | 0.105 | 0.15 | 82.7 | 75.3 | 17.2 | 0.0758 | 92.7 | 951 | 0.237 | 249000 | – |
| B3 | 2.47 | 0.0413 | 1.67e+07 | 8.67 | 1.67 | 0.087 | 0.144 | 84.9 | 74 | 16.7 | 0.0594 | 92.4 | 21.5 | 0.00171 | 79500 | – |
| B4 | – | – | – | – | – | – | – | – | – | – | – | – | – | – | – | EC50 (read off the curve) [3]: ~2 nM; koff [4]: 3.49e-05 s⁻¹; koff [5]: 7.45e-05 s⁻¹; Kd [6]: 4.62 nM; kon [7]: 147000 M⁻¹ s⁻¹; Kd [8]: 0.238 nM; kon [9]: 16100 M⁻¹ s⁻¹ |
| B5 | 1.77 | 0.0223 | 1.26e+07 | 7.46 | 0.97 | 0.0447 | 0.0859 | 87.4 | 81.2 | 16.1 | 0.0301 | 93.2 | 746 | 0.199 | 267000 | – |
| B6 | 1.75 | 0.021 | 1.2e+07 | 8.05 | 1.32 | 0.0222 | 0.0343 | 86.4 | 80.1 | 17 | 0.0141 | 94.6 | 657 | 0.121 | 184000 | – |
| B7 | 1.59 | 0.0219 | 1.38e+07 | 8.58 | 1.65 | 0.0409 | 0.0744 | 86.8 | 77 | 16.5 | ~0.0348 | 92.7 | 23.6 | 0.00205 | 86900 | – |
